{"source": "patent US8865222B2", "about": "“Beta-casein assemblies for enrichment of food and beverages and methods of preparation thereof” (Technion Research and Development Foundation Ltd., priority 2008, dated 2014)", "molecules": {"B1": {"name": "beta-casein: lyophilized bovine beta-casein (~24 kDa milk protein) self-assembled into nano-sized micelles at low or neutral pH (protein, UniProt P02666 16-224, looked up)", "Beta-casein": "RELEELNVPGEIVESLSSSEESITRINKKIEKFQSEEQQQTEDELQDKIHPFAQTQSLVYPFPGPIPNSLPQNIPPLTQTPVVVPPFLQPEVMGVSKVKEAMAPKHKEMPFPKYPVEPFTESQSLTLTDVENLHLPLPLLQSWMHQPHQPLPPTVMFPPQSVLSLSQSKVLPVPQKAVPYPQRDMPIQAFLLYQEPVLGPVRGPFPIIV"}}, "assay": "Small angle X-ray scattering (SAXS) of beta-casein micellar solutions", "type": "physicochemical", "conditions": "for aggregation number: pH 6.7, 0.05M NaCl", "procedure": "Small Angle X-ray Scattering (SAXS): The small angle x-ray scattering equipment consisted of a SAXSess camera (Anton-Paar, Graz, Austria) connected to an x-ray generator (Philips, PW1730/10) operating at 40 kV and 50 mA with a sealed-tube Cu anode. A Göbel mirror was used to convert the divergent polychromatic x-ray beam into a focused line-shaped beam of Cu Kα radiation (λ=0.154 nm). The 2D scattering pattern was recorded by a PI-SCX fused fiber optic taper CCD camera from Princeton Instruments, which is a division of Roper Scientific, Inc. (Trenton, N.J., USA). The used CCD detector features a 2084×2084 array with 24×24 μm pixel size (chip size: 50×50 mm). The CCD was operated at −30° C. with 10° C. water-assisted cooling to reduce the thermally generated charge. Cosmic ray correction and background subtraction were performed on the 2D image before further data processing. The 2D image was integrated into the one-dimensional scattering function within a band of 10 mm. The measurement time was 30 min for each scattering curve (6 images of 5 minutes were taken to assist the cosmic ray correction).\nDetermination of the Beta-Casein Assemblies Molecular Weights.\nThe molecular weight of the scattering aggregates were calculated according to Eq. 1:\n[formula] where M is the molecular weight, dΣ(0)/dΩ (cm^−1) the forward scattering intensity at q=0, c (g/cm^3) the beta-casein concentration, NA the Avogadro number, and ΔρM (cm/g) the scattering length difference per mass, given by: ΔρM=Δρ v (2)\nThe scattering length difference Δρ (cm^−2) was calculated using the known chemical composition of the protein and the solvent, and v (cm^3/g), the specific volume of the protein in the solution that was calculated via density measurement of the solvent and the solution. The micelle aggregation number was then calculated by dividing the molecular weight of the micelles determined with Eq. 1, by the molecular weight of a single protein molecule.\nFor a particle of arbitrary shape with a scattering density difference of Δρ(r), the pair distance distribution function p(r) (PDDF) is given by: p(r)=r^2Δ ρ^2(r) (3) where Δ ρ^2(r) is the convolution square of Δρ(r) averaged for all directions in space. The PDDF is related to the scattered intensity I(q) by a Fourier transformation, and it enables the determination of the overall shape and size of the scattering objects.\n[formula] where q is the magnitude of the scattering vector q, defined as\n[formula] λ is the wavelength of the incident radiation and θ is the angle between the scattered and incident beam. The function ƒ(r)=p(r)/r (6) is useful to identify flat plate-like particles, although it has no direct physical meaning. For lamellae, this function starts with a linearly increasing part and becomes almost flat when r is equal to the thickness of the lamella. For flat particles with a finite base area, the outer part decreases linearly because of boundary losses. The thickness of the lamella can then be read from the transition point. […] The standard error of the analytical ultracentrifugation data is 5%, and that of the Rg is 4%. The analysis supports the statistical significance and validity of the results.\n• Characterization of the beta-casein micelles by SAXS: We have applied SAXS measurements to determine the shape and dimensions of the micelles at low pH and at neutral pH, more precisely, and to evaluate the micelle molecular weight (i.e., the aggregation number). The scattering curves of 20 mg/mL beta-casein in lactic acid solution (pH 2.6, IS 0.0022) at different temperatures are shown in FIG. 3a. […] Consequently, the calculated Pair Distance Distribution Functions (PDDF), are also similar (FIG. 3b). The maximum micelle dimension is approximately 25 nm at all temperatures. The area under the PDDF curve, which is proportional to the weight of one particle, is almost constant. To calculate the aggregation number, the density of the solvent and the solution was measured at various temperatures (Table 2). […]", "note": "Values joined by “and” are separate entries in the source; they are usually repeats but may differ in a detail not shown here. Equal values may be shown once."}
{"molecule": "B1", "values": [{"measurement": "maximum micelle dimension", "setting": "20 mg/mL, pH 2.6, IS 0.0022, all temperatures 4-40 °C", "result": "approximately 25 nm"}, {"measurement": "aggregation number", "setting": "20 mg/mL, 1 °C", "result": 7}, {"measurement": "aggregation number", "setting": "20 mg/mL, 60 °C", "result": 210}, {"measurement": "Nagg", "setting": "pH 2.6, 4 °C, 2 wt % beta-casein, SAXS", "result": 8}, {"measurement": "Nagg", "setting": "pH 2.6, 16 °C, SAXS", "result": 10}, {"measurement": "aggregation state", "setting": "pH 2.6, 25 °C, 0.1 wt %", "result": "monomers"}, {"measurement": "aggregation state", "setting": "pH 2.6, 25 °C, 0.25 wt %", "result": "dimers"}, {"measurement": "CMC", "setting": "pH 2.6, 25 °C, SAXS", "result": "0.1-0.2 wt %"}, {"measurement": "Nagg", "setting": "pH 2.6, 25 °C, SAXS", "result": 11}, {"measurement": "Nagg", "setting": "pH 2.6, 40 °C, SAXS", "result": 9}, {"measurement": "thickness of the particles", "setting": "pH 2.6, all temperatures, from f(r) transition point", "result": "~3.5", "unit": "nm"}, {"measurement": "Micelle Dimensions", "setting": "pH 2.6, as a function of temperature 4-40 °C", "result": "Constant"}, {"measurement": "typical sizes of beta-casein micelles", "setting": "pH 7.0, ionic strength 0.1, depending on protein concentration", "result": "13-15 nm and 22-25 nm"}]}
